Earlier results on one substance are cited in PMC7717565, “Structure of the Lifeact–F-actin complex” (PLoS Biology, 2020).

This data set deals with F-actin (Oryctolagus cuniculus) (UniProt P68135).

What is called Kd is the concentration at which binding is half-saturated. On to Lifeact Lifeact (from UniProt Q08641), for which the dissociation constant Kd was 13.2 µM.
